Results: the supplement of paper PMC10724198
± gives the standard deviation of the averaged measurements.

tested on: Saccharomyces cerevisiae; assay: protein stability index of tFT-peptide fusion (C-terminal peptide) (PSI (0-1 scale)); higher = more stable (slower turnover); conditions: genetic background: wild type; temperature: 30 C
Protocol: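 Multiplexed protein stability (MPS) profiling in S. cerevisiae. Random 12-aa peptides (tFT-X12 library) are fused to the C-terminus of a sfGFP-mCherry tandem fluorescent timer, after mCherry and a GGGS linker. Cells are FACS-sorted into 8 mCherry/sfGFP bins and deep-sequenced. The protein stability index (PSI) is the read-weighted bin average, scaled from 0 (unstable) to 1 (stable). Only peptides with >10 reads are reported; cells were grown at 30 °C in SC-His with glucose.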
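Also: PSI is a weighted mean of sequencing reads over stability bins, variants kept only with over 10 reads, mCherry proximal and sfGFP distal, peptide attached via GGGS linker.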

Point of comparison: APPPPPPLLLSF, protein stability index 0.626 ± 0.038. Against it:
- AAASWRVRIGRG — higher, 0.7425 ± 0.004
- AAFERRDPDLKV — higher, 0.766 ± 0.062
- AAIPPPLHTWRY — higher, 0.722 ± 0.054
- AANRCSVLPLGF — within error, 0.601 ± 0.041
- AAPPPAPPPPPR — higher, 0.694 ± 0.0082
- AAPSPHPLNSLS — within error, 0.687 ± 0.036
- AAQHNSLRGGPP — higher, 0.731 ± 0.036
- AASPRDPQKDHA — within error, 0.711 ± 0.057
- AAVSRPLPLGPP — within error, 0.693 ± 0.075
- AAYGCSGGEVGW — within error, 0.68 ± 0.025
- ACDFCIPGVRLD — higher, 0.745 ± 0.022
- ACDGIRRPVRGG — within error, 0.697 ± 0.059
- ACEAERRTFRWV — within error, 0.66 ± 0.012
- ACGGVWASGRGG — higher, 0.705 ± 0.017
- ACGLVSTSWYGA — within error, 0.713 ± 0.086
- ACLCFIEFRCLL — lower, 0.547 ± 0.017
- ACLWRLSWVLGK — within error, 0.641 ± 0.037
- ACLYDSMSVSSK — within error, 0.6386 ± 0.0012
- ACSPGHCTTGTS — within error, 0.649 ± 0.021
- ACTWASSSLARG — higher, 0.735 ± 0.027
- ACVGGGGMKVLG — within error, 0.713 ± 0.065
- ADLEQTWRYRLD — within error, 0.674 ± 0.031
- ADSVVAGKGASV — within error, 0.686 ± 0.031
- ADTIKRTKRSYP — within error, 0.643 ± 0.1
- AECMLGLFSGVL — higher, 0.73 ± 0.033
- AEFSLFRPHSAA — within error, 0.649 ± 0.11
- AEGPAGNRGLGG — within error, 0.6564 ± 0.0058
- AEHSIFQLFPKD — higher, 0.7034 ± 0.002
- AELPPETKRLTR — the same, 0.626 ± 0.04
- AERCCLHPPIPA — lower, 0.541 ± 0.033
- AFFLVLSAFRWI — within error, 0.541 ± 0.091
- AFFRPGISRPYG — higher, 0.71 ± 0.0072
- AFFSFLFSNSFL — within error, 0.664 ± 0.0082
- AFFYLRGQESLL — within error, 0.688 ± 0.077
- AFHFFLIPHSFF — within error, 0.639 ± 0.025
- AFICGWSVGFGW — higher, 0.697 ± 0.0072
- AFLLAVIRSSCV — lower, 0.55 ± 0.031
- AFNPLPPFPLGF — higher, 0.706 ± 0.034
- AGAIWGGDSGVG — within error, 0.607 ± 0.047
- AGAWGREVVGWG — higher, 0.708 ± 0.033
- AGEGGRKGGGSR — within error, 0.676 ± 0.014
- AGGAVGEAGSEG — higher, 0.6939 ± 0.0027
- AGGGNGGGGGEK — within error, 0.663 ± 0.019
- AGGKRGGDGRWQ — within error, 0.668 ± 0.014
- AGGLCLGGVGLG — within error, 0.674 ± 0.079
- AGGLHRSRPCVD — higher, 0.709 ± 0.024
- AGGSGGEAGSEG — within error, 0.655 ± 0.043
- AGGWVGAEGCGG — higher, 0.763 ± 0.024
- AGHGTHSNSPFA — within error, 0.693 ± 0.074
- AGLGWGARQGAL — within error, 0.67 ± 0.019
- AGLVPSSLQSVS — higher, 0.695 ± 0.019
- AGPGMARERYFY — within error, 0.634 ± 0.046
- AGPPPERDPGAS — within error, 0.684 ± 0.069
- AGPWMESPTKSC — higher, 0.702 ± 0.023
- AGQGGWREAGGG — within error, 0.676 ± 0.027
- AGRAVAAAVRED — within error, 0.728 ± 0.076
- AGRGRHPRSTWR — within error, 0.688 ± 0.053
- AGRSAHMEVRHE — higher, 0.712 ± 0.047
- AGTCVSVGVHRY — within error, 0.599 ± 0.051
- AGVRFLVIPRPP — higher, 0.7182 ± 0.004
- AGVVCGGGWWWA — within error, 0.772 ± 0.12
- AGWPAGARARAP — higher, 0.712 ± 0.016
- AHFSRRCKGLFG — higher, 0.741 ± 0.01
- AHQGSENRNMSV — within error, 0.688 ± 0.043
- AIFAPPFPPTPV — within error, 0.69 ± 0.071
- AILFGSSSWVVV — within error, 0.659 ± 0.032
- AIRPPLPPPTPL — within error, 0.674 ± 0.046
- AIRSSRMPLGSA — within error, 0.668 ± 0.07
- AISAGRTFVEVV — within error, 0.657 ± 0.067
- AKKKHHKYRRNG — within error, 0.6542 ± 0.0048
- AKLDMARGGGVV — within error, 0.645 ± 0.018
- AKYNISTMTGHT — higher, 0.695 ± 0.024
- ALCVPRTGPFFI — higher, 0.737 ± 0.02
- ALHYEVVGRGYL — within error, 0.679 ± 0.036
- ALLGIAGGQAAQ — higher, 0.714 ± 0.028
- ALLPFLTPLLSR — within error, 0.561 ± 0.054
- ALLPLPPSPSLL — higher, 0.719 ± 0.0097
- ALLPPPRPLPHP — higher, 0.719 ± 0.014
- ALLTWIFTCIHI — within error, 0.571 ± 0.039
- ALPAGLRDLPRP — within error, 0.586 ± 0.025
- ALPCLSPVLPFL — higher, 0.729 ± 0.014
- ALPPPPPPSPLL — within error, 0.642 ± 0.035
- ALPPSPLLPTLP — within error, 0.702 ± 0.062
- ALSELSIDISHI — within error, 0.632 ± 0.067
- ALSFFGSCCLPF — higher, 0.748 ± 0.014
- ALSGSFVSWLGG — within error, 0.689 ± 0.061
- ALSLPFERVRDT — higher, 0.692 ± 0.022
- ALTALQTFRITL — within error, 0.638 ± 0.014
- ALWGHSWHSSLR — higher, 0.713 ± 0.015
- AMAMSSGQCFSS — higher, 0.67674 ± 0.00043
- AMSSVRCRLWPM — higher, 0.761 ± 0.034
- ANECYAEDREIR — within error, 0.69 ± 0.027
- ANQKRTKQQHRR — higher, 0.722 ± 0.01
- ANRLNASYQVSD — higher, 0.6982 ± 0.0038
- APCRSLLADLAL — higher, 0.736 ± 0.036
- APDLAVWNLGPH — higher, 0.68899 ± 0.00041
- APFLDRSSPRSF — within error, 0.707 ± 0.15
- APKCRRRNSSGL — within error, 0.68 ± 0.057
- APKPPPPPPPLP — higher, 0.709 ± 0.02
- APLPPLRPPPSA — within error, 0.687 ± 0.043
- APNAGPPTRSHR — within error, 0.737 ± 0.086
- APNGTPPLSLAS — within error, 0.646 ± 0.017
- APPARSPPPPRP — higher, 0.7216 ± 0.0026
- APPFRYLNSVSC — within error, 0.66 ± 0.034
- APPPALHPPPPH — within error, 0.688 ± 0.054
- APPPLPPLPPSP — within error, 0.727 ± 0.2
- APPPPGPLPPPS — higher, 0.698 ± 0.025
- APPPPPPPPRPL — within error, 0.642 ± 0.041
- APPPPQSRASSP — higher, 0.7379 ± 0.0052
- APPPPSLPVPST — higher, 0.739 ± 0.015
- APPPSVCPRFPI — higher, 0.796 ± 0.012
- APRFLGLLCPLL — within error, 0.655 ± 0.0089
- APRIILTCRSLT — within error, 0.5 ± 0.1
- APRLRRHPPHEP — higher, 0.696 ± 0.0079
- APSPPPRISAWL — higher, 0.749 ± 0.045
- APSPSPPPPLPN — within error, 0.685 ± 0.058
- APSQGPSRPGVV — higher, 0.708 ± 0.038
- APTPACTRPSVA — within error, 0.693 ± 0.033
- APTPPPVLLTPP — within error, 0.6694 ± 0.0063
- APTRPPRPNLFH — within error, 0.625 ± 0.018
- APVGTPARPSLS — higher, 0.725 ± 0.016
- APVLSVSFFSFL — higher, 0.718 ± 0.013
- AQPGRLHLSCES — within error, 0.688 ± 0.052
- ARAAQPVHFLNL — within error, 0.715 ± 0.059
- ARAPPLPPPPAL — higher, 0.698 ± 0.0076
- ARGARTCDLIRW — higher, 0.717 ± 0.035
- ARLHIPSLLPAS — higher, 0.6798 ± 0.0057
- ARPLPPSLPPPP — higher, 0.7356 ± 0.0046
- ARPVSRWCEASY — within error, 0.645 ± 0.025
- ARQSVYNDLVYV — within error, 0.582 ± 0.0065
- ARRPHSPLCTTR — higher, 0.7101 ± 0.00075
- ARRTSAGVWCTA — higher, 0.705 ± 0.04
- ARSLPSPTLPFL — within error, 0.697 ± 0.058
- ARSQTGRTYFSP — within error, 0.694 ± 0.062
- ARTRRPTPGRPI — within error, 0.719 ± 0.066
- ARVAFARLPNVC — within error, 0.66 ± 0.016
- ARVIISGYWILY — lower, 0.519 ± 0.048
- ARVRAQIRDGRT — within error, 0.6403 ± 0.0021
- ASEKFGIMSTML — within error, 0.662 ± 0.045
- ASGSLGQIFSGL — higher, 0.699 ± 0.026
- ASHPESHIAWPA — within error, 0.691 ± 0.03
- ASLLSCRLPCLC — lower, 0.518 ± 0.026
- ASPFGFLFCCGG — within error, 0.654 ± 0.025
- ASPLFPLPPPPP — higher, 0.71 ± 0.004
- ASPPPEVCLSHR — higher, 0.682 ± 0.0092
- ASQTTKAKNTGH — within error, 0.6688 ± 0.006
- ATATPPAPPPSP — higher, 0.686 ± 0.011
- ATLCVVSKLGLC — within error, 0.589 ± 0.0069
- ATSPTPALPPLL — within error, 0.743 ± 0.14
- ATVDLDLLSTCL — higher, 0.7 ± 0.02
- ATVPLVTPLPHF — within error, 0.697 ± 0.042
- AVAPPISTLLPV — higher, 0.743 ± 0.04
- AVEVRATVWWWW — lower, 0.53259 ± 0.00014
- AVFHPPPILPPP — higher, 0.70154 ± 0.00061
